Experiments:
[1] = molecular target: T1, human CD8 on cells (CD8-overexpressing HEK293T cells, SupT1, HPB-ALL, human T cells, transfected HEK293 of … (human, UniProt P01732 22-235)); experiment: flow cytometry on CD8-overexpressing HEK293T cells, non-linear fit of normalized gMFI
T1 construct: whole, on cells; also called cell surface CD8
Method: To obtain the results shown in FIG. 3A, that determined EC₅₀ values for antigen-specific binding, CD8-overexpressing HEK293T cells were dissociated in Versine solution (PBS buffer at pH 7.4 supplemented with 0.5 mM EDTA), and 2×10⁵ total cells were transferred to a V-bottom 96 well culture plate (Corning). Cells were washed twice with Cell Staining buffer (#420201, Biolegend). Each anti-CD8α antibody with human IgG1 isotype and Fc-silencing mutations L234A, L235A and P329A was diluted in four-fold antibody titration series from 100 μg/mL to 6.1 ng/ml into Cell Staining buffer. eFluor 780 Fixable Viability dye (eBioscience) was also included during antibody solutions at a 1:4000 dilution. Cells were stained with each diluted antibody solution for 30 minutes on ice. Cells were then washed three times with Cell Staining buffer and primary antibody binding was detected by staining with anti-human Fc BV421 conjugate antibody (#410704, Biolegend) at 1:100 dilution for 30 minutes on ice. After staining with the secondary detection antibody, cells were washed three times with Cell Staining buffer, fixed in FluoroFix buffer (Biolegend) and kept at 4° C. in the dark until analysis. Flow cytometry analysis on each sample was performed on an Agilent NovoCyte flow cytometer. Flow cytometry data was analyzed by Flowjo 10 (Becton, Dickinson & Company) to measure the geometric median fluorescence intensity (gMFI) of the on-cell binding from each antibody. The gMFI values were normalized with the gMFI measured in the sample stained with only the secondary detection antibody and plotted against the concentration of the added antibodies. The binding curves were constructed using the Graphpad Prism software, and EC₅₀ values were determined by non-linear curve fitting.

insulin (Sigma) = molecular target: T2, insulin (Sigma); experiment: polyreactive ELISA, insulin coated, 100 nM antibody
T2 construct: Antigen of the polyreactivity ELISA
T2 sequence (P01308 25-54, chain 1 of 2): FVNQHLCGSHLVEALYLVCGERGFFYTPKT
T2 sequence (P01308 90-110, chain 2 of 2): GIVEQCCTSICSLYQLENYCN
Method: Insulin ([…]; Sigma) and dsDNA ([…]; Sigma) were coated onto 96-well high-binding ELISA microplates (Corning) at 50 μL per well overnight at 4° C. Plates were blocked with PBS with 0.5% BSA (blocking buffer) at room temperature (RT) for 1 h, followed by three washes with PBST (PBS with 0.1% Tween-20). 50 μL of 100 nM antibody in blocking buffer was added to each well and incubated at RT for 1 h, followed by six washes with 100 μL of PBS. 50 μL of diluted anti-human IgG-horseradish peroxidase (HRP) conjugate (Jackson ImmunoResearch) was added to the wells and incubated for 1 h followed by another six washes. Finally, 50 μL of 3, 3′, 5, 5′-Tetramethylbenzidine (TMB) substrate (Fisher Scientific) was added to each well to develop the detection signal. The reactions were stopped by adding 50 μL of 2 M sulfuric acid to each well. The absorbance was measured at 450 nm using a multimode microplate reader. Ustekinumab as the control antibody with low polyreactivity and bococizumab as a highly polyreactive antibody control were also included in the polyreactive ELISA assessment.
The first assessment tested for low non-specific binding to dsDNA and insulin by ELISA. […] Thus, by this standard, none of the tested antibodies were polyreactive.

[2] = molecular target: T3, human CD8αα homodimer, recombinant protein (Acro Biosystems) (human, UniProt P01732 22-182); experiment: BLI steady state, whole hIgG1-LALAPA antibody on CD8α-His (Ni-NTA sensor), 30 °C
T3 construct: also called CD8αα antigen; biotinylated CD8α recombinant protein (CDA-H82E3)
T3 sequence (P01732 22-182 limits assumed): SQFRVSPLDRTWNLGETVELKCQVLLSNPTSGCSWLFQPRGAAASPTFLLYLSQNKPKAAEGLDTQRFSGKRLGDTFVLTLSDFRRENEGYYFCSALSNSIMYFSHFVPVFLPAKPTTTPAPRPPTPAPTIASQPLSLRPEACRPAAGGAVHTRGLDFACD
Method: (§1) To assess affinity of whole antibodies, steady state analysis was used as the bivalent nature of both whole antibody and CD8α complicates kinetic analysis. 50 nM CD8α-His (that is, CD8α with a C-terminal oligohistidine tag; Acro) was immobilized on Ni-NTA sensor probes. Binding was analyzed with a three-fold antibody dilutions series: 60 nM, 20 nM, 6.67 nM, 2.22 nM, 0.74 nM, and 0.25 nM. The antigen-loaded sensors were incubated in the diluted solutions to capture the whole IgG antibody for 300 s to record the association phase. Sensors were incubated in the kinetic buffer for 900 s to record the dissociation phase. The spin speed was 1000 rpm for all steps except the antigen loading step which was 400 rpm to control density of the antigen. The temperature of the performed assays was at 30° C. during the association and dissociation phases. The sensor data were baseline subtracted and further analyzed in GatorOne software (version 2.10) to determine the equilibrium dissociation constants (KD) of the antibodies by fitting the signals of the steady states to the 1:1 binding model.

[3] = molecular target: T4, custom recombinant human CD8α mouse IgG2a Fc fusion protein (human; mouse, UniProt P01732 22-182, limits assumed); experiment: BLI kinetic sensorgram, 1:1 global fit, 37 °C
T4 construct: Custom protein; also called human CD8α mouse Fc fusion protein; not shown: mouse IgG2a Fc
T4 sequence (P01732 22-182 limits assumed): as above
Method: (§2) The global fitting was performed with a 1:1 fitting model using GatorOne software as described below.
(§3) To measure the binding kinetics of the biotin-conjugated Fab molecule, streptavidin-immobilized SA-XT sensors (#160029, Gator Bio) were prehydrated in the kinetic buffer and loaded with […] biotinylated Fab sample CBD1033.37 or CBD1033.24 to a threshold response of 10 nm. […] The binder-loaded sensors were incubated in the diluted solutions to capture the CD8α protein for 1200 s to record the association phase. Sensors were finally incubated in the kinetic buffer for another 1200 s to record the dissociation phase. The spin speed for all steps was 1000 rpm. The temperature of the performed assays were at 37° C. during the association and dissociation. The sensor data were baseline subtracted, and global curve fitting of the kinetic data from six different analyte concentrations at a 1:1 monovalent binding model was performed using the GatorOne software (version v2.10) to determine the kinetic rate constants (kₒₙ and koff) and equilibrium dissociation constants (KD) of the analyzed binder.

[4] = molecular target: T4, custom recombinant human CD8α mouse …; experiment: BLI kinetics, biotin-conjugated F(ab') on SA-XT sensor, HuCD8a mouse Fc fusion as analyte, 37 °C
Method: as §2, §3

[5] = molecular target: T3, human CD8αα homodimer, recombinant …; experiment: BLI steady state, whole hIgG1-LALAPA antibody on CD8α-His (Ni-NTA sensor), 30 °C; remark: listed apart in the source
Method: as §1

[6] = molecular target: T3, human CD8αα homodimer, recombinant …; experiment: BLI steady state analysis of the data of FIG. 2G
Method: as §1

[7] = molecular target: T3, human CD8αα homodimer, recombinant …; experiment: BLI kinetic assay, engineered F(ab') fragment
Method: as §2
Biolayer interferometry kinetic assays were performed using a GatorBio Gator Plus BLI system. Kinetic buffer containing PBS plus 0.1% Tween 20 and 0.2% BSA was used for calculating the baseline. To measure the binding kinetics of anti-CD8α antibody fragment (Fab), streptavidin-immobilized SA-XT sensors (#160029, Gator Bio) were prehydrated in the kinetic buffer and loaded with […] biotinylated CD8α recombinant protein (CDA-H82E3, Acro Biosystems) at a spin speed of 400 rpm to a threshold response of 10 nm. The sensors were then incubated in the kinetic buffer for 300 s to acquire a baseline measurement prior to each association. […] The antigen-loaded sensors were incubated in the diluted solutions to capture Fab fragments for 300 s to record the association phase. Sensors were finally incubated in the kinetic buffer for 900 s to record the dissociation phase. The spin speed for all steps except the antigen loading step was 1000 rpm. The temperature of the performed assays was either 30° C. or 37° C. during the association and dissociation phases. Sensor data were baseline subtracted, and global curve fitting of the kinetic data from six different analyte concentrations at a 1:1 monovalent binding model was performed using GatorOne software (version v2.10) to determine kinetic rate constants (kₒₙ and koff) and equilibrium dissociation constants (KD) of the analyzed antibodies.

[8] = molecular target: T3, human CD8αα homodimer, recombinant …; experiment: BLI kinetic sensorgram, 1:1 global fit
Method: as §2, §3

[9] = molecular target: T3, human CD8αα homodimer, recombinant …; experiment: BLI, whole antibody, steady state dissociation constant (column head x10^-9M)
Method: as §1

[10] = molecular target: T3, human CD8αα homodimer, recombinant …; experiment: BLI, whole antibody

T1 sequence (P01732 22-235): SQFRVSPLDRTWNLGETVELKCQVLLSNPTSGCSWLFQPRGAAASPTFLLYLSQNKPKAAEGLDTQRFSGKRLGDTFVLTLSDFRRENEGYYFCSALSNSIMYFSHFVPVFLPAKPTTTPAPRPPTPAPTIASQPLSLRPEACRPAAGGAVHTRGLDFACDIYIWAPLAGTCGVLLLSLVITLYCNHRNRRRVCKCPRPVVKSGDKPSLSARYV

B1: CBD1040 whole antibody, Fc-silenced human IgG1 (LALAPA) (antibody, V domains shown)
VH: QVQLVQSGAEVKKPGASVKISCKASRYTFTDYNLHWVRQAPGQGLEWIGFIYPYNGGTGYAQKFQGRATLTVDYSTSTAYMELSSLRSEDTAVYYCARDHRYNEGVSFDYWGQGTTLTVSS
VL: DIQLTQSPSSLSASVGDRATITCRASESVDGFGNSFMNWYQQKPGKAPKLLIYLASNLESGVPSRFSGSGSRTDFTLTISSVQPEDFATYYCQQNNEDPYTFGQGTKLEIKR
[1]
  EC50: 2.54 nM
Insulin (Sigma)
  polyreactivity ELISA score: 1
[2]
  Kd: 4.06 nM

B2: maleimide-PEG-biotin conjugated CBD1033.37 F(ab') (Fab, V domains shown)
VH: QVQLVQSGAEVKKPGASVKVSCKASRYTFTDYNLHWVRQAPGQGLEWMGFIYPYNGGTGYAQKFQGRVTMTVDTSTSTAYMELSSLRSEDTAVYYCARDHRYNEGVSFDYWGQGTTVTVSS
VL: DIQLTQSPSSLSASVGDRATITCRASESVDGFGNSFMNWYQQKPGKAPKLLIYLASNLESGVPSRFSGSGSGTDFTLTISSVQPEDFATYYCQQNNEDPYTFGQGTKLEIKR
modifications: maleimide-PEG11-biotin on CH C230 (sequential numbering, corresponding to C239 in Kabat numbering)
notes: Loaded on streptavidin sensors through the biotin; also called biotinylated Fab sample CBD1033.37
[3]
  Kd: 6.85 nM
  koff: 0.000144 s⁻¹
  kon: 20900 M⁻¹ s⁻¹
[4]
  Kd: 6.85 nM
  koff: 0.000144 s⁻¹
  kon: 20900 M⁻¹ s⁻¹

B3: CBD1043 (antibody, human IgG1, kappa, L234A L235A, V domains shown)
VH: QVQLVQSGAEVKKPGASVKVSCKASRYTFTDYNLHWVRQAPGQGLEWIGFIYPYNGGTGYAQKFQGRVTITADTSTSTAYMELSSLRSEDTAVYYCARDHRYNEGVSFDYWGQGTLVTVSS
VL: EIVLTQSPGTLSLSPGERATLSCRASESVDGFGNSFMNWYQQKPGQAPRLLIYLASNLESGVPARFSGSGSGTDFTLTISRLEPEDFAVYYCQQNNEDPYTFGQGTKVEIKR
notes: also called CBD1043- hIgG1LALAPA; h1017-H7/L5 whole antibody
[5]
  Kd: 3.91 nM
[6]
  Kd: 3.91 nM

B4: CBD1033.37 disulfide-engineered F(ab') analog (IgG1-derived) (Fab, V domains shown)
VH: QVQLVQSGAEVKKPGASVKVSCKASRYTFTDYNLHWVRQAPGQGLEWMGFIYPYNGGTGYAQKFQGRVTMTVDTSTSTAYMELSSLRSEDTAVYYCARDHRYNEGVSFDYWGQGTTVTVSS
VL: DIQLTQSPSSLSASVGDRATITCRASESVDGFGNSFMNWYQQKPGKAPKLLIYLASNLESGVPSRFSGSGSGTDFTLTISSVQPEDFATYYCQQNNEDPYTFGQGTKLEIKR
notes: Engineered CH1-F174C / CK-S162C interchain disulfide; native disulfide removed; also called .37 design
[7]
  Kd: 4.01 nM
  koff: 6.28e-05 s⁻¹
  kon: 15600 M⁻¹ s⁻¹
[8]
  Kd: 4.01 nM
  koff: 6.28e-05 s⁻¹
  kon: 15600 M⁻¹ s⁻¹

B5: CBD1382 whole antibody (VH N55A of CBD1033), Fc-silenced human IgG1 (antibody, V domains shown)
VH: QVQLVQSGAEVKKPGASVKVSCKASRYTFTDYNLHWVRQAPGQGLEWMGFIYPYAGGTGYAQKFQGRVTMTVDTSTSTAYMELSSLRSEDTAVYYCARDHRYNEGVSFDYWGQGTTVTVSS
VL: DIQLTQSPSSLSASVGDRATITCRASESVDGFGNSFMNWYQQKPGKAPKLLIYLASNLESGVPSRFSGSGSGTDFTLTISSVQPEDFATYYCQQNNEDPYTFGQGTKLEIKR
[9]
  Kd: 0.88 nM
[10]
  koff: 0.00195 s⁻¹
  kon: 1.63e+06 M⁻¹ s⁻¹

B6: CBD1380 whole antibody (VH N55S of CBD1033), Fc-silenced human IgG1 (antibody, V domains shown)
VH: QVQLVQSGAEVKKPGASVKVSCKASRYTFTDYNLHWVRQAPGQGLEWMGFIYPYSGGTGYAQKFQGRVTMTVDTSTSTAYMELSSLRSEDTAVYYCARDHRYNEGVSFDYWGQGTTVTVSS
VL: DIQLTQSPSSLSASVGDRATITCRASESVDGFGNSFMNWYQQKPGKAPKLLIYLASNLESGVPSRFSGSGSGTDFTLTISSVQPEDFATYYCQQNNEDPYTFGQGTKLEIKR
[9]
  Kd: 0.76 nM
[10]
  koff: 0.00192 s⁻¹
  kon: 1.86e+06 M⁻¹ s⁻¹

B7: CBD1381 whole antibody (VH N55Q of CBD1033), Fc-silenced human IgG1 (antibody, V domains shown)
VH: QVQLVQSGAEVKKPGASVKVSCKASRYTFTDYNLHWVRQAPGQGLEWMGFIYPYQGGTGYAQKFQGRVTMTVDTSTSTAYMELSSLRSEDTAVYYCARDHRYNEGVSFDYWGQGTTVTVSS
VL: DIQLTQSPSSLSASVGDRATITCRASESVDGFGNSFMNWYQQKPGKAPKLLIYLASNLESGVPSRFSGSGSGTDFTLTISSVQPEDFATYYCQQNNEDPYTFGQGTKLEIKR
[9]
  Kd: 0.5 nM
[10]
  koff: 0.000795 s⁻¹
  kon: 1.91e+06 M⁻¹ s⁻¹
